Measurements reported in patent US20250092426, “CAS ENDONUCLEASES AND RELATED METHODS” (Flagship Pioneering Innovations VII, LLC, published 2025).

Target: T1, CasEnd-21 (synthetic construct)
T1 chain: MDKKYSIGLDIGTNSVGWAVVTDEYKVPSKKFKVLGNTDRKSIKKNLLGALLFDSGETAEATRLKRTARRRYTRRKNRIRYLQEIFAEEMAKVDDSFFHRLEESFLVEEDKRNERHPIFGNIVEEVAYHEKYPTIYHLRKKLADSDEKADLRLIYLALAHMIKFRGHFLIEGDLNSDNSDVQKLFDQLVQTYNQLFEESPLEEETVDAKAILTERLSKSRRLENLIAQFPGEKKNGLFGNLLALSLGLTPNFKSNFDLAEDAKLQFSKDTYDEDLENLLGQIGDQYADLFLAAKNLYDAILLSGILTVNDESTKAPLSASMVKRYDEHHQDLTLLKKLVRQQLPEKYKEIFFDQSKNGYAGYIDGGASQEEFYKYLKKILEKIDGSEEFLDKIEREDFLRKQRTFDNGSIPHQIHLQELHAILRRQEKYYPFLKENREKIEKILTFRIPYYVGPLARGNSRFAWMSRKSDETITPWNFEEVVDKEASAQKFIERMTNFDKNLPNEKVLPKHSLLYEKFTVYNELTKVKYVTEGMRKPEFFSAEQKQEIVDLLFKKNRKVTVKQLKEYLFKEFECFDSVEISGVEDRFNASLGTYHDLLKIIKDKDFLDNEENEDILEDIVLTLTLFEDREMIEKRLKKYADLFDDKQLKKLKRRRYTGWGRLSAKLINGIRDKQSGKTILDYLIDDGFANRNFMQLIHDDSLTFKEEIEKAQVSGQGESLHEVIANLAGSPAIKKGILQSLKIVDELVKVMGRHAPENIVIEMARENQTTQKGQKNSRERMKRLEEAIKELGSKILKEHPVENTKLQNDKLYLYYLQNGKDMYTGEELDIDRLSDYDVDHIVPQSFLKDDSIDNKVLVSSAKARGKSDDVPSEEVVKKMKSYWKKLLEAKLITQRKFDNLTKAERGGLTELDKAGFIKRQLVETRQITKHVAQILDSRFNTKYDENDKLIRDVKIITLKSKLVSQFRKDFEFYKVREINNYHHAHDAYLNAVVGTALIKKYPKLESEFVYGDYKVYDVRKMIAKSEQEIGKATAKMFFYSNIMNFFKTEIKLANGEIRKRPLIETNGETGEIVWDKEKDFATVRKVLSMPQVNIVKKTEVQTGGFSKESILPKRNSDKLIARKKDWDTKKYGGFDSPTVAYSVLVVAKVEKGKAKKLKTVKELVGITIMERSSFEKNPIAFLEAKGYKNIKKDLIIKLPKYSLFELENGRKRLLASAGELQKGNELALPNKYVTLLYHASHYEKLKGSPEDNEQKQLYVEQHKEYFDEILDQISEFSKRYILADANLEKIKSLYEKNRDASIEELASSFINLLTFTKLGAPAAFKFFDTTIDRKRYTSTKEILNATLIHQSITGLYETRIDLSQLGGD
Test: cell_activity; +++; HEK293T; PAM not stated
Experimental: The ability of the candidate endonucleases, including endonucleases 1-38 (CasEnds 1-38) (set forth in Table 1 and SEQ ID NOS: 1-38, respectively), to mediate target nucleic acid editing was assessed utilizing a blue fluorescent protein (BFP) to green fluorescent protein (GFP) conversion assay, wherein programmed nucleotide editing of the BFP gene was measured by the expression of GFP (signifying the conversion of […] via the programmed nucleotide edit in the BFP gene). The conversion assay was conducted utilizing the reverse transcriptase-based system (as described above in Example 2) comprising a template RNA (designed to convert BFP to GFP) and a fusion protein comprising a retroviral reverse transcriptase and the individual subject Cas endonuclease. The amino acid sequence of the base portion of the fusion protein (without the individual subject Cas endonuclease) is set forth in Table 7 (SEQ ID NO: 43).
Briefly, 200 ng of plasmid DNA encoding the subject fusion protein (containing one of the subject CasEnds) and 200 ng of template RNA (in plasmid format) were added to 25 μL SF buffer containing 250,000 HEK293T BFP-expressing cells. Nucleofection was mediated utilizing program DS-150. The day of nucleofection was marked as day 0. At day 4, the cells were harvested and analyzed by flow cytometry to assess the level of BFP and GFP expression in HEK293T cells. Cells having GFP signal were defined as having undergone a successful editing event, and the percent of cells that were GFP+ on day 4 was used to determine the performance of each Cas endonuclease.

B1: BFP-to-GFP template RNA ; BFP reporter protospacer (ssRNA ; dsDNA)
RNA: GCCGAAGCACUGCACGCCGUGUUUUAGAGCUAGAAAUAGCAAGUUAAAAUAAGGCUAGUCCGUUAUCAACUUGAAAAAGUGGCACCGAGUCGGUGCACCCUGACGUACGGCGUGCAGUGCUU
DNA 1: GCCGAAGCACTGCACGCCGT
DNA 2: ACGGCGTGCAGTGCTTCGGC
With B1 as the binder, how does the activity read?
The activity was ≥ 100 % of reference.
